Data from US20240229003A1.

Target: LGR6 (UniProt Q9HBX8)
Assay: cell-based or functional assay

Sequence of UniProt Q9HBX8 (Q9HBX8 25-967): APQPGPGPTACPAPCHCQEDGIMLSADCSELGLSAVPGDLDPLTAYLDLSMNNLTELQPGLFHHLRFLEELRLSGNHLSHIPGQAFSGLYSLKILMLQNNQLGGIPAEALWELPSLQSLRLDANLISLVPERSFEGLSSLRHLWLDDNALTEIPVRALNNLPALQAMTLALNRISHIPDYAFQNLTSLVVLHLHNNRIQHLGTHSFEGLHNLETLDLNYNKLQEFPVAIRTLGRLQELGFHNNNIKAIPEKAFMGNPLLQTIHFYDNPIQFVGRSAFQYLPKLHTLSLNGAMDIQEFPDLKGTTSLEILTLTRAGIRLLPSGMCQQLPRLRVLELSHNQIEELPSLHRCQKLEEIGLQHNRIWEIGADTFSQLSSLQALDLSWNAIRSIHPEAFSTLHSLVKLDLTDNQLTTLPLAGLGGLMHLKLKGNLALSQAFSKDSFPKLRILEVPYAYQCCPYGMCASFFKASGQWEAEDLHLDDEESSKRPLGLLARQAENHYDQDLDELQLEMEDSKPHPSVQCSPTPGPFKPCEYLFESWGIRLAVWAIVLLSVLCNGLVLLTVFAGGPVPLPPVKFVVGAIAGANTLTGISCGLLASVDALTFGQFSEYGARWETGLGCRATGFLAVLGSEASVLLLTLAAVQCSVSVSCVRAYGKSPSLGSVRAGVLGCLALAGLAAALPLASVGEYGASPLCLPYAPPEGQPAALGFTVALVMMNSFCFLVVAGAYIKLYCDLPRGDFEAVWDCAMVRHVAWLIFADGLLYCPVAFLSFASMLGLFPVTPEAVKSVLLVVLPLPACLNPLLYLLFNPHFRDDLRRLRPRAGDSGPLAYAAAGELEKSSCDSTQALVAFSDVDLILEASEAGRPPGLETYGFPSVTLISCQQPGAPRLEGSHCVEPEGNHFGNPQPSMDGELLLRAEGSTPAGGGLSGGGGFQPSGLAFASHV

Work on “MBP-RSPO1-MMAE (from UniProt Q2MKA7 21-145)” yielded an IC50 of cell killing on LGR6-overexpressing HEK-LGR6-2 cells (10 days exposure, CCK-8 viability) of 0.08 nM and a fold potency of killing, HEK-LGR6-2 cells against empty vector-transfected HEK-pcDNA cells of 12 fold.
